Source: patent US20250034271A1 (EUCURE BEIJING BIOPHARMA, published 2025)
Where a chain is given by its changes, count along the chain named.

Key:
[1] = target: T1, mouse CD40 (mCD40) on transfected CHO cells (mouse, UniProt P27512 20-289); assay: flow cytometry, CHO-mCD40 cells, anti-mIgG Fc-FITC
T1 sequence: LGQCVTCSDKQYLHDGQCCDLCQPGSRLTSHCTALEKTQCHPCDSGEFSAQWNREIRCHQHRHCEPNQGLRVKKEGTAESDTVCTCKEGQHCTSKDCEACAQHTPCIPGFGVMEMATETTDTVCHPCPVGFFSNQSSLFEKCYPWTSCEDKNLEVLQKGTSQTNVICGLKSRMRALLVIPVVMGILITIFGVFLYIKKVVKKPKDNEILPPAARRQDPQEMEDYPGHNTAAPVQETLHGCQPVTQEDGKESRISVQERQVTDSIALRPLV
Procedure: (§1) 25 μl CHO cells were added to each well. 25 μl purified anti-hCD40 antibodies (1 μg/ml) (7F10, 6A7, or 4H6) were added to each well and were incubated at 4° C. for 30 minutes.
(§2) After being washed with PBS (1200 rmp, 5 min) twice, 50 μl of FITC labeled anti-mouse IgG Fc antibody (anti-mIgG Fc-FITC) was added into each well 1:100 dilution, followed by incubated at 4° C. for 30 minutes, and then PBS wash (1200 rmp, 5 min). The signals for FITC were detected by flow cytometry.

[2] = target: T2, monkey (rhesus macaque) CD40 (rmCD40) on transfected CHO cells (rhesus macaque, UniProt P25942 21-277 (human entry)); assay: flow cytometry, CHO-rmCD40 cells, antibody 1 µg/ml, anti-mIgG Fc-FITC; x: Anti-mouse-IgG-Fc-FITC, y: SSC-H
T2 construct: also called monkey CD40
T2 chain: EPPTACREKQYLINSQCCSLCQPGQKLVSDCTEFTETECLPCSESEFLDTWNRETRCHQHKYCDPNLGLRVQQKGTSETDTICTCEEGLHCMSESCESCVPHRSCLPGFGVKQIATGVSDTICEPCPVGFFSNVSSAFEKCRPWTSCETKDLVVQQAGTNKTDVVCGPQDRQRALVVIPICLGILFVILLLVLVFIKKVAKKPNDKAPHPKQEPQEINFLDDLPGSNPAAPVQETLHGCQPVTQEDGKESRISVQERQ
Procedure: as §1, §2

[3] = target: T3, chimeric (mouse and human) CD40 (chiCD40) on transfected CHO cells (chimeric (mouse and human)); assay: flow cytometry, CHO-chiCD40 cells, antibody 1 µg/ml, anti-mIgG Fc-FITC; x: Anti-mouse-IgG-Fc-FITC, y: SSC-H
T3 construct: also called human-mouse chimeric CD40; chimeric CD40
Procedure: as §1, §2

[4] = target: T4, human CD40 (hCD40) on transiently transfected CHO cells (human, UniProt P25942 21-277); assay: flow cytometry, CHO cells with hCD40, antibody titrated then hCD40L-hFc added (blocked ligand: hCD40L-hFc); y: hCD40 Ligand-hFc, x: Anti-mouse-IgG-Fc-PE
T4 construct: also called TNF Receptor Superfamily Member 5; TNFRSF5
Procedure: The anti-hCD40 antibodies were collected from mouse ascites fluid and purified by chromatography. 25 μl CHO cells transiently transfected with human CD40 were added to each well in a plate. The purified antibodies were titrated to final concentrations of 50, 5, 0.5, 0.05, and 0.005 μg/ml. The titrated antibodies were added to each well at 25 μl per well at 4° C. and incubated for 30 minutes.
hCD40 ligand-hFc was expressed by H293T cells. 50 μl of hCD40L-hFc was added to each well (1:500). The cells with hCD40L-hFc and the antibodies were incubated at 4° C. for 15 minutes.
After being washed with phosphate-buffered saline (PBS) twice, 50 μl of PE labeled anti-mouse IgG Fc antibody (anti-mIgG Fc-PE) at 1:500 dilution and FITC-labeled anti-human IgG Fc antibody (anti-hIgG Fc-FITC) at 1:100 dilution were added into each well, and incubated for 30 minutes at 4° C., followed by PBS wash. The signals for FITC and PE were determined by flow cytometry.

[5] = target: T1, mouse CD40 (mCD40) on transfected CHO …; assay: flow cytometry, CHO-mCD40 cells, antibody 1 µg/ml, anti-mIgG Fc-FITC; x: Anti-mouse-IgG-Fc-FITC, y: SSC-H
Procedure: as §1, §2

[6] = target: T5, Histidine-tagged human CD40 protein (hCD40-His) (human, UniProt P25942 21-193); assay: SPR, Biacore T200; antibody on Protein A chip, hCD40-His injected; 1:1 fit
T5 construct: not shown: histidine tag
Procedure: The binding affinity of the anti-hCD40 antibodies were measured using surface plasmon resonance (SPR) using Biacore (Biacore, INC, Piscataway N.J.) T200 biosensor equipped with pre-immobilized Protein A sensor chips.
(§3) Anti-hCD40 antibodies were collected by transfecting CHO-S cells and then purified. The antibodies (1 μg/mL) were injected into Biacore T200 biosensor at 10 μL/min for about 24-33 seconds to achieve to a desired protein density (about 44-57 response units (RU)). […] Dissociation was monitored for 300 seconds. The chip was regenerated after the last injection of each titration with Glycine (pH 2.0, 30 μL/min for 12 seconds).

[7] = target: T6, Histidine-tagged mfCD40 protein (mfCD40-His), Macaca fascicularis (Macaca fascicularis, UniProt G7PG38 21-193); assay: SPR, Biacore T200; antibody on Protein A chip, mfCD40-His injected; 1:1 fit
T6 construct: not shown: histidine tag
Procedure: The binding affinity of the anti-hCD40 antibodies with mfCD40 (Macaca fascicularis) were measured using surface plasmon resonance (SPR) using Biacore (Biacore, INC, Piscataway N.J.) T200 biosensor equipped with pre-immobilized Protein A sensor chips.
as §3, with “were” for “were collected by transfecting CHO-S cells and then”, “(0.5” for “(1”, “18-26” for “24-33”, “44-58” for “44-57”, “300-600” for “300”

T5 sequence (P25942 21-193 limits assumed): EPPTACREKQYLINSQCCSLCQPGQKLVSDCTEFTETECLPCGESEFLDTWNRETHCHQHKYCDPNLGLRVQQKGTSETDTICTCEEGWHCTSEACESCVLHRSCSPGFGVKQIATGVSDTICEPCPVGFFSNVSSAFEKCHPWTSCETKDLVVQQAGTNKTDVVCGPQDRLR

B1: mouse anti-hCD40 antibody 07-4H6 (antibody, V domains shown)
VH: EVKLQESGPSLVKPSQTLSLTCSVTGDSVSSGYWNWIRKFPGNKLEYMGFISYSGSTYYTPSLKSRISITRDTSKNQFYLQLNSVTTEDTATYFCARFRRYDDGVDYWGQGTTLTVSS
VL: DIQMTQSPSSLSASLGERVSLTCRASHEISGYLSWIQQKPDGTIKRLINAASTLASGVPKRFSGSRSGSEYSLTINSLESEDFADYYCLQYSSYPWTFGGGTKLEIK
notes: Mouse antibody purified from ascites
binding result [1]: no binding
% cells in the Anti-mouse-IgG-Fc-FITC positive gate [2]: 88.5%
% cells in the Anti-mouse-IgG-Fc-FITC positive gate [3]: 87.8%
% cells lower left (ligand- / antibody-) at 0.005µg/mL [4]: 35.7%
% cells lower left (ligand- / antibody-) at 0.05µg/mL [4]: 16.8%
% cells lower left (ligand- / antibody-) at 0.5µg/mL [4]: 11.1%
% cells lower left (ligand- / antibody-) at 5µg/mL [4]: 11.4%
% cells lower left (ligand- / antibody-) at 50µg/mL [4]: 7.76%
% cells lower right (ligand- / antibody+) at 0.005µg/mL [4]: 3.7%
% cells lower right (ligand- / antibody+) at 0.05µg/mL [4]: 26.9%
% cells lower right (ligand- / antibody+) at 0.5µg/mL [4]: 63.6%
% cells lower right (ligand- / antibody+) at 5µg/mL [4]: 80.8%
% cells lower right (ligand- / antibody+) at 50µg/mL [4]: 83.7%
% cells upper left (ligand+ / antibody-) at 0.005µg/mL [4]: 1.95%
% cells upper left (ligand+ / antibody-) at 0.05µg/mL [4]: 0%
% cells upper left (ligand+ / antibody-) at 0.5µg/mL [4]: 0%
% cells upper left (ligand+ / antibody-) at 5µg/mL [4]: 0%
% cells upper left (ligand+ / antibody-) at 50µg/mL [4]: 0.185%
% cells upper right (ligand+ / antibody+) at 0.005µg/mL [4]: 58.7%
% cells upper right (ligand+ / antibody+) at 0.05µg/mL [4]: 56.4%
% cells upper right (ligand+ / antibody+) at 0.5µg/mL [4]: 25.4%
% cells upper right (ligand+ / antibody+) at 5µg/mL [4]: 7.75%
% cells upper right (ligand+ / antibody+) at 50µg/mL [4]: 8.32%
% cells in the Anti-mouse-IgG-Fc-FITC positive gate [5]: 1.56%

B2: 4H6-mHvKv-IgG1 (antibody, V domains shown)
VH: B1 VH
VL: B1 VL
notes: Chimeric
Kd [6]: 36.5 nM
koff [6]: 0.0205 s⁻¹
kon [6]: 561000 M⁻¹ s⁻¹

B3: 4H6-H3K2-IgG4 (antibody, V domains shown)
VH: EVQLQESGPGLVKPSQTLSLTCTVSGDSVSSGYWNWIRKHPGKKLEYMGFISYSGSTYYTPSLKSRITISRDTSKNQFSLKLSSVTAADTAVYFCARFRRYDDGVDYWGQGTLVTVSS
VL: DIQMTQSPSAMSASVGDRVTITCRASHEISGYLSWIQQKPGGTIKRLINAASTLASGVPSRFSGSRSGTEFTLTISSLQPEDFADYYCLQYSSYPWTFGGGTKLEIK
notes: Humanized
Kd [6]: 53.6 nM
koff [6]: 0.0215 s⁻¹
kon [6]: 401000 M⁻¹ s⁻¹
Kd [7]: 33.6 nM
koff [7]: 0.0192 s⁻¹
kon [7]: 570000 M⁻¹ s⁻¹

B4: 4H6-H4K2-IgG4 (antibody, V domains shown)
VH: B3 VH with H40F
VL: B3 VL
notes: Humanized
Kd [6]: 48.7 nM
koff [6]: 0.0191 s⁻¹
kon [6]: 392000 M⁻¹ s⁻¹
Kd [7]: 29.7 nM
koff [7]: 0.0169 s⁻¹
kon [7]: 568000 M⁻¹ s⁻¹

B5: mouse anti-hCD40 antibody 06-6A7 (antibody, V domains shown)
VH: QVQLQQPGAELVKPGASVKLSCKASGYTFISYYIYWVKQRPGQGLEWIGGINPRNGGTNFNEKFKSKATLTVDKSSSTAYMQLSSLTSEDSAVYYCTRHGNGVYWGQGTTLTVSS
VL: DVVMTQTPLSLPVSLGDQASISCRSSQSLLHSNGNTYLHWYLQKPGQSPNHLIYQVSNRFSGVPDRFSGSGSGTDFTLKISRVEAEDLGVYFCSQTTHVPWTFGGGTKLEIK
notes: as for B1
binding result [1]: no binding
% cells in the Anti-mouse-IgG-Fc-FITC positive gate [2]: 96.4%
% cells in the Anti-mouse-IgG-Fc-FITC positive gate [3]: 94.6%
% cells lower left (ligand- / antibody-) at 0.005µg/mL [4]: 41.2%
% cells lower left (ligand- / antibody-) at 0.05µg/mL [4]: 14.9%
% cells lower left (ligand- / antibody-) at 0.5µg/mL [4]: 3.18%
% cells lower left (ligand- / antibody-) at 5µg/mL [4]: 6.37%
% cells lower left (ligand- / antibody-) at 50µg/mL [4]: 7.92%
% cells lower right (ligand- / antibody+) at 0.005µg/mL [4]: 4.1%
% cells lower right (ligand- / antibody+) at 0.05µg/mL [4]: 31.6%
% cells lower right (ligand- / antibody+) at 0.5µg/mL [4]: 45.1%
% cells lower right (ligand- / antibody+) at 5µg/mL [4]: 67.8%
% cells lower right (ligand- / antibody+) at 50µg/mL [4]: 69.7%
% cells upper left (ligand+ / antibody-) at 0.005µg/mL [4]: 1.44%
% cells upper left (ligand+ / antibody-) at 0.05µg/mL [4]: 0%
% cells upper left (ligand+ / antibody-) at 0.5µg/mL [4]: 0%
% cells upper left (ligand+ / antibody-) at 5µg/mL [4]: 0%
% cells upper left (ligand+ / antibody-) at 50µg/mL [4]: 0.108%
% cells upper right (ligand+ / antibody+) at 0.005µg/mL [4]: 53.2%
% cells upper right (ligand+ / antibody+) at 0.05µg/mL [4]: 53.5%
% cells upper right (ligand+ / antibody+) at 0.5µg/mL [4]: 51.7%
% cells upper right (ligand+ / antibody+) at 5µg/mL [4]: 25.9%
% cells upper right (ligand+ / antibody+) at 50µg/mL [4]: 22.3%
% cells in the Anti-mouse-IgG-Fc-FITC positive gate [5]: 1.16%

B6: 6A7-H3K3-IgG4 (antibody, V domains shown)
VH: QVQLVQSGAEVKKPGASVKVSCKASGYTFISYYIYWVRQAPGQGLEWIGGINPRNGGTNFNEKFKSRATLTVDTSISTAYMELSRLRSEDTAVYYCTRHGNGVYWGQGTTVTVSS
VL: B5 VL with T7S, S14T, Q18P, L42Q, K44R, L88V
notes: Humanized
Kd [6]: 2.9 nM
koff [6]: 0.000356 s⁻¹
kon [6]: 123000 M⁻¹ s⁻¹
Kd [7]: 0.871 nM
koff [7]: 0.000201 s⁻¹
kon [7]: 231000 M⁻¹ s⁻¹

B7: 6A7-H4K2-IgG4 (antibody, V domains shown)
VH: B6 VH with V20L, R38K, V111L
VL: B5 VL with T7S, S14T, D17Q, Q18P, L42Q, K44R, L88V, L109V
notes: Humanized
Kd [6]: 3.06 nM
koff [6]: 0.000322 s⁻¹
kon [6]: 105000 M⁻¹ s⁻¹
Kd [7]: 3.96 nM
koff [7]: 0.000787 s⁻¹
kon [7]: 199000 M⁻¹ s⁻¹
